The assay deals with T1, human Sema4D (semaphorin 4D) (human, UniProt Q92854 22-734).
T1 construct: Semaphorin 4D (Sema4D, CD100), human, recombinant protein bought from R&D Systems, cat. no; 7470-S4; check against the vendor's data sheet; also called CD100; source: bought: R&D (7470-S4)
T1 sequence (looked up): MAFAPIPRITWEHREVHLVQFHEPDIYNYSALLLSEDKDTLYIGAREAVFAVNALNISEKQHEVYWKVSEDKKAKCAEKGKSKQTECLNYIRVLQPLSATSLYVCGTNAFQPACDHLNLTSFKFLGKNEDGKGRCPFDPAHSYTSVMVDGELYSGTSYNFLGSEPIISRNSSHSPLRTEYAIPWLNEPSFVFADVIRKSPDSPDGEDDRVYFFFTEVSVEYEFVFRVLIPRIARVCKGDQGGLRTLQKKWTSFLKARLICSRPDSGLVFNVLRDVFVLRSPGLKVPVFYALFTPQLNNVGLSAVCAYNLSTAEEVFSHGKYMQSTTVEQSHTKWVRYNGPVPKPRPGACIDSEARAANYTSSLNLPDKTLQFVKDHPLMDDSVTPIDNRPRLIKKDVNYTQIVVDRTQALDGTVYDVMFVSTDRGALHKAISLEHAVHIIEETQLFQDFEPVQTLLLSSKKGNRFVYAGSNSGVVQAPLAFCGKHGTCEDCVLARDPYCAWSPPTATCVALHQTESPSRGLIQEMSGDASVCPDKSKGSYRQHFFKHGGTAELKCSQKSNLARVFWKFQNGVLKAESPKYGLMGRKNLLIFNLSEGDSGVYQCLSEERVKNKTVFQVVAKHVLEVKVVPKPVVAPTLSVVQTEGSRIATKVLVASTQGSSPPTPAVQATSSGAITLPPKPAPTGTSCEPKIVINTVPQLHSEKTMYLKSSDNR
As to the kind of experiment: BLI; OctetRED384; 5 μg/ml biotinylated human Plexin-B1 (20–535)-Avi-6xHis captured on an SA biosensor in 1xKinetics buffer; then 50 nM antibody or buffer, then 50 nM human Sema4D; qualitative analysis of association curves. To be noted: both partners purified.

B1: biotinylated human Plexin-B1 (20–535)-Avi-6xHis (domain or fragment, UniProt O43157 20-535, looked up)
chain: LQPLPPTAFTPNGTYLQHLARDPTSGTLYLGATNFLFQLSPGLQLEATVSTGPVLDSRDCLPPVMPDECPQAQPTNNPNQLLLVSPGALVVCGSVHQGVCEQRRLGQLEQLLLRPERPGDTQYVAANDPAVSTVGLVAQGLAGEPLLFVGRGYTSRGVGGGIPPITTRALWPPDPQAAFSYEETAKLAVGRLSEYSHHFVSAFARGASAYFLFLRRDLQAQSRAFRAYVSRVCLRDQHYYSYVELPLACEGGRYGLIQAAAVATSREVAHGEVLFAAFSSAAPPTVGRPPSAAAGASGASALCAFPLDEVDRLANRTRDACYTREGRAEDGTEVAYIEYDVNSDCAQLPVDTLDAYPCGSDHTPSPMASRVPLEATPILEWPGIQLTAVAVTMEDGHTIAFLGDSQGQLHRVYLGPGSDGHPYSTQSIQQGSAVSRDLTFDGTFEHLYVMTQSTLLKVPVASCAQHLDCASCLAHRDPYCGWCVLLGRCSRRSECSRGQGPEQWLWSFQPELGCLQ
modifications: biotin on the Avi-tag (in vitro, BirA enzyme)
notes: Plexin-B1, human, extracellular region residues 20-535; cloned as fragment 1-535 and secreted as 20-535; the Avi-tag stands between the C-terminus of the fragment and the 6xHis tag; The SPR experiments with the antibodies used the form without the Avi-tag, Plexin-B1 (20–535)-6xHis; The cell assays used full-length human Plexin-B1-FLAG (GenScript, pcDNA3.1); also called human recombinant Plexin-B1 …
For the molecule B1, the binding result is “binds”.
